In assay [1] the target is T1, human amylin receptor (amylin 3(a) receptor: human calcitonin receptor co-expressed with RAMP-3) (human, UniProt P30988 25-474; O60896 24-148, limits assumed).
T1 construct: whole, on cells; also called hAmylin-R; hAmylinR
T1 sequence (looked up) 1: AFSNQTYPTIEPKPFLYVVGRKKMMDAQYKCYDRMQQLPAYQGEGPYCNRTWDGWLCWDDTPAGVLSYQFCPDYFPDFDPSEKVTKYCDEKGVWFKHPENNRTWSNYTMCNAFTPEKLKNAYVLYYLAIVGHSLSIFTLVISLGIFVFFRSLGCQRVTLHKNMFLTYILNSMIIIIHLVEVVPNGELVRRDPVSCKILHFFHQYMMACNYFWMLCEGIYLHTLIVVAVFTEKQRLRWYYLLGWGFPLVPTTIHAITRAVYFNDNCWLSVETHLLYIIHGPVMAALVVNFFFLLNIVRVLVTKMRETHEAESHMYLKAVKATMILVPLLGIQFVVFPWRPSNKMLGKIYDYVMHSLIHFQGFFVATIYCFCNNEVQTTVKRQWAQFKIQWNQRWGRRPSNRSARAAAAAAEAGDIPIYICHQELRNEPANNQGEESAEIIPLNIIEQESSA
T1 sequence (looked up) 2: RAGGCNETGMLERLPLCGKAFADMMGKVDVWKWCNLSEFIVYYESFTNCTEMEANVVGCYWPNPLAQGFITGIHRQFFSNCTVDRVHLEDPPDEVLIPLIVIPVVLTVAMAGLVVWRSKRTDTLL
Nature of the assay: SPA competition binding, membranes of Amylin 3(a)/CRE-luc BHK cells, displacement of 125I-rat amylin (Assay V). The essentials:
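SPA beads with BHK Amylin 3(a)/CRE-luc cell membranes (35 ng/μL final) in 50 mM Hepes pH 7.4, 1 mM CaCl2, 5 mM MgCl₂, 0.1% OA, 0.02% Tween20.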
A general note: In a radioligand displacement assay an active substance lowers the binding of a labelled ligand.

The target of assay [2] is T2, human amylin receptor (amylin 3(a) receptor: human calcitonin receptor co-expressed with RAMP-3) (human, UniProt P30988 25-474; O60896 24-148, limits assumed).
T2 construct: whole, on cells; Functional EC50: the whole cells (Assay II a); also called hAmylin-R; hAmylinR
T2 sequence (looked up) 1: T1 sequence (looked up) 1
T2 sequence (looked up) 2: T1 sequence (looked up) 2
Nature of the assay: SPA competition binding on membranes of Amylin 3(a)/CRE-luc BHK cells, displacement of 125I-rat amylin (Assay V). How it is done:
(§1) The binding assay was performed using scintillation proximity assay (SPA) beads (RPNQ0001) from PerkinElmer and cell membranes from the Amylin 3(a)/CRE-luc cells (as described in Assay (II)) were used. Membranes were prepared in the following way; the cells were rinsed with PBS and incubated with Versene for approximately 5 min before harvesting. The cells were flushed with PBS and the cell-suspension was centrifuged for 5 min at 1000 rpm. Cells were homogenized (ultrathurrax) in a buffer containing 20 mM Na-HEPES and 10 mM EDTA (pH 7.4) and centrifuged at 20.000 rpm for 15 min. The resulting pellet was resuspended, homogenized and centrifuged (20.000 rpm, 15 min) in a buffer containing 20 mM Na-HEPES and 0.1 mM EDTA (pH 7.4, buffer 2). The resulting pellet was resuspended in buffer 2 and protein concentration was measured (BCA protein Assay, Pierce). The homogenate was kept cold during the whole procedure. The membranes were kept at −80° C. until use. The assay was performed in a 384 well Optiplate (PerkinElmer) in a total volume of 40 ul. Membranes were mixed with SPA beads. Final concentration of membranes 35 ng/μL final and SPA beads was 0.05 mg/well. […] Samples were analyzed on TopCounter™ (Packard). The IC₅₀ was calculated using (one site binding competition analysis) GraphPad Prism5 as a measure of receptor affinity.

Assay [3] concerns the target T3, human calcitonin receptor (human, UniProt P30988 25-474).
T3 sequence (looked up): T1 sequence (looked up) 1
In words: cell-based or functional assay.

For assay [4], the target named is T2, human amylin receptor (amylin 3(a) …). In words: cell-based or functional assay.
In a further assay the target is T4, rat calcitonin receptor (rat, UniProt P32214 25-516).
T4 construct: whole, on cells; Used as membranes prepared from transiently transfected BHK tk'ts 13 cells (Assay VIII); also called rCTR; rat calcitonin (a) receptor
T4 sequence (looked up): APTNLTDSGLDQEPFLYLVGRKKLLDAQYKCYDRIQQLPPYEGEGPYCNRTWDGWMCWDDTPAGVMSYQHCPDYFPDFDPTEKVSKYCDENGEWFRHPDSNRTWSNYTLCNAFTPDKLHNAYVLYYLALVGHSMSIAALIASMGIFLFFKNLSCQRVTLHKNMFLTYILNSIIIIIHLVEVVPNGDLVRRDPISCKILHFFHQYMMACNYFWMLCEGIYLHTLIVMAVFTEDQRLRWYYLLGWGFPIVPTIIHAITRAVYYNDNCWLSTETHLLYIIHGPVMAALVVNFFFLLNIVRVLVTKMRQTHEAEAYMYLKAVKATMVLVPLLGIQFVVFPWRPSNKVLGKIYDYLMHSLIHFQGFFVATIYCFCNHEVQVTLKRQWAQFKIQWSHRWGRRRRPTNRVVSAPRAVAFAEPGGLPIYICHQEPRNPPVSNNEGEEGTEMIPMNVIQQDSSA
In words: SPA competition binding, displacement of 125I-calcitonin from membranes of BHK tk'ts 13 cells with rat calcitonin receptor (Assay VIII).

The target in assay [5] is T5, rat amylin receptor (rat calcitonin receptor + rat RAMP 3) (rat, UniProt P32214 25-516; Q9JJ73 23-147).
T5 construct: whole, on cells; Used as membranes prepared from transiently transfected BHK tk'ts 13 cells (Assay VI); also called rAmylin-R; rat amylin 3(a) receptor
T5 sequence (looked up) 1: T4 sequence (looked up)
T5 sequence (looked up) 2: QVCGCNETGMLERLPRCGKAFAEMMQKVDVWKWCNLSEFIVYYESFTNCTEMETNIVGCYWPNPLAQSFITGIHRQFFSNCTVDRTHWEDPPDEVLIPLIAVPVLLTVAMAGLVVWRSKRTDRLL
Nature of the assay: SPA competition binding, displacement of 125I-rat amylin from membranes of BHK tk'ts 13 cells with rat calcitonin receptor + rat RAMP 3 (Assay VI).

The target of assay [6] is T6, human amylin 3(a) receptor (human calcitonin receptor co-expressed with RAMP-3) (human, UniProt P30988 25-474; O60896 24-148, limits assumed).
T6 sequence (looked up) 1: T1 sequence (looked up) 1
T6 sequence (looked up) 2: T1 sequence (looked up) 2
Nature of the assay: cell-based or functional assay.

Assay [7] addresses T6, human amylin 3(a) receptor (human …). In words: SPA competition vs 125I-rat amylin, membranes of BHK Amylin 3(a)/CRE-luc cells (Assay V). How it is done:
as §1

Numbered stars: 1 amine (or outer) side, 2 acyl side, 3 side chain; on linkers, the order of the positions; unused ones are H or OH. Bridge positions count the residues as written; N and C are the ends. Square brackets hold non-standard residues; d marks the D form. Side chains are listed from the residue outwards. Ends that are not written are not given here. * marks the point of attachment. C20 diacid = O=C(O)CCCCCCCCCCCCCCCCCCC(=O)*; γGlu = O=C(O)[C@H](CCC(=O)[*:2])N[*:1]

In general, IC50 refers to the concentration that inhibits the measured activity by half.

B1: N^ε1-[(4S)-4-carboxy-4-[[(4S)-4-carboxy-4-(19-carboxynonadecanoylamino)butanoyl]amino]butanoyl]-[Glu14,Arg17,Pro21,Pro27,Pro34,Glu35,Pro37]-h-amylin (peptide)
peptide: K([γGlu-γGlu-C20 diacid])CNTATCATQRLAEFLRHSSPNFGAIPSSTNVGPETP-NH2
modifications: disulfide 2-7; N-terminus assumed
SMILES: CC[C@H](C)[C@H](NC(=O)[C@H](C)NC(=O)CNC(=O)[C@H](Cc1ccccc1)NC(=O)[C@H](CC(N)=O)NC(=O)[C@@H]1CCCN1C(=O)[C@H](CO)NC(=O)[C@H](CO)NC(=O)[C@H](Cc1c[nH]cn1)NC(=O)[C@H](CCCNC(=N)N)NC(=O)[C@H](CC(C)C)NC(=O)[C@H](Cc1ccccc1)NC(=O)[C@H](CCC(=O)O)NC(=O)[C@H](C)NC(=O)[C@H](CC(C)C)NC(=O)[C@H](CCCNC(=N)N)NC(=O)[C@H](CCC(N)=O)NC(=O)[C@@H](NC(=O)[C@H](C)NC(=O)[C@@H]1CSSC[C@H](NC(=O)[C@@H](N)CCCCNC(=O)CC[C@H](NC(=O)CC[C@H](NC(=O)CCCCCCCCCCCCCCCCCCC(=O)O)C(=O)O)C(=O)O)C(=O)N[C@@H](CC(N)=O)C(=O)N[C@@H]([C@@H](C)O)C(=O)N[C@@H](C)C(=O)N[C@@H]([C@@H](C)O)C(=O)N1)[C@@H](C)O)C(=O)N1CCC[C@H]1C(=O)N[C@@H](CO)C(=O)N[C@@H](CO)C(=O)N[C@H](C(=O)N[C@@H](CC(N)=O)C(=O)N[C@H](C(=O)NCC(=O)N1CCC[C@H]1C(=O)N[C@@H](CCC(=O)O)C(=O)N[C@H](C(=O)N1CCC[C@H]1C(N)=O)[C@@H](C)O)C(C)C)[C@@H](C)O
With B1, the IC50 in assay [1] amounted to 533 pM.

B2: N^ε1-[(4S)-4-carboxy-4-(19-carboxynonadecanoylamino)butanoyl]-[His14,Arg17,Pro21,Pro27,Pro34]-h-amylin (peptide)
peptide: K([γGlu-C20 diacid])CNTATCATQRLAHFLRHSSPNFGAIPSSTNVGPNTY-NH2
modifications: disulfide 2-7; N-terminus assumed
SMILES: CC[C@H](C)[C@H](NC(=O)[C@H](C)NC(=O)CNC(=O)[C@H](Cc1ccccc1)NC(=O)[C@H](CC(N)=O)NC(=O)[C@@H]1CCCN1C(=O)[C@H](CO)NC(=O)[C@H](CO)NC(=O)[C@H](Cc1c[nH]cn1)NC(=O)[C@H](CCCNC(=N)N)NC(=O)[C@H](CC(C)C)NC(=O)[C@H](Cc1ccccc1)NC(=O)[C@H](Cc1c[nH]cn1)NC(=O)[C@H](C)NC(=O)[C@H](CC(C)C)NC(=O)[C@H](CCCNC(=N)N)NC(=O)[C@H](CCC(N)=O)NC(=O)[C@@H](NC(=O)[C@H](C)NC(=O)[C@@H]1CSSC[C@H](NC(=O)[C@@H](N)CCCCNC(=O)CC[C@H](NC(=O)CCCCCCCCCCCCCCCCCCC(=O)O)C(=O)O)C(=O)N[C@@H](CC(N)=O)C(=O)N[C@@H]([C@@H](C)O)C(=O)N[C@@H](C)C(=O)N[C@@H]([C@@H](C)O)C(=O)N1)[C@@H](C)O)C(=O)N1CCC[C@H]1C(=O)N[C@@H](CO)C(=O)N[C@@H](CO)C(=O)N[C@H](C(=O)N[C@@H](CC(N)=O)C(=O)N[C@H](C(=O)NCC(=O)N1CCC[C@H]1C(=O)N[C@@H](CC(N)=O)C(=O)N[C@H](C(=O)N[C@@H](Cc1ccc(O)cc1)C(N)=O)[C@@H](C)O)C(C)C)[C@@H](C)O
notes: also called compound 67
In the case of B2, the IC50 in assay [2] came out at 90 pM. Besides, in assay [3], the “hCTR funct. EC50” value was found to be 354 pM. Besides, in assay [4], the “hAmylin-R funct. EC50” value came to 69 pM.

In the case of K([γGlu-γGlu-C20 diacid])CNTATCATQRLA[dD]FLRHSSPNFGAIPSSTNVGSRTY-NH2 (disulfide 2-7 (inferred), Residue 14 is the D-isomer of Asp), the IC50 in the assay with rat calcitonin receptor was determined as 536000 pM; in assay [5], 1690 pM.

B3: N^α1-[2-[2-[2-[[2-[2-[2-[[(4S)-4-carboxy-4-(19-carboxynonadecanoylamino)butanoyl]amino]ethoxy]ethoxy]acetyl]amino]ethoxy]ethoxy]acetyl]-[Arg17,Pro21,Pro27]-h-am … (peptide)
peptide: KCNTATCATQRLANFLRHSSPNFGAIPSSTNVGSNTY
modifications: alpha-amino group of N-terminal Lys1 acylated with C20 diacid via linker gGlu-2xOEG; disulfide bridge Cys2-Cys7 and C-terminal amide as in human amylin
notes: also called compound 24
Take B3: in assay [6], the “Ratio hCT/hAmylin funct. (hCTR EC50 over hAmylin-R EC50)” value was 23.1 and the “hAmylin-R funct. EC50 (pM)” value turned out to be 433 pM. In assay [7], the IC50 worked out at 1140 pM.

Source of the values: patent US20140087995A1 (published 2014).
